Target: T1, Fcab-wt (human, UniProt P01857-1 99-330 = IgG part)
T1 construct: Negative control
Test: ELISA on coated human ανβ3 integrin, HRP labelled protein A
Experimental: For the integrin ELISA, 1 ug/ml human ανβ3 integrin in PBS was coated over night on Maxisorp plates and blocked for 1 h with BSA in PBS containing 1 mM Ca2+. […] Bound Fcabs were detected by HRP labelled protein A and TMB as a substrate.

B1: human ανβ3 integrin (Chemicon) (receptor)
chain 1: FNLDVDSPAEYSGPEGSYFGFAVDFFVPSASSRMFLLVGAPKANTTQPGIVEGGQVLKCDWSSTRRCQPIEFDATGNRDYAKDDPLEFKSHQWFGASVRSKQDKILACAPLYHWRTEMKQEREPVGTCFLQDGTKTVEYAPCRSQDIDADGQGFCQGGFSIDFTKADRVLLGGPGSFYWQGQLISDQVAEIVSKYDPNVYSIKYNNQLATRTAQAIFDDSYLGYSVAVGDFNGDGIDDFVSGVPRAARTLGMVYIYDGKNMSSLYNFTGEQMAAYFGFSVAATDINGDDYADVFIGAPLFMDRGSDGKLQEVGQVSVSLQRASGDFQTTKLNGFEVFARFGSAIAPLGDLDQDGFNDIAIAAPYGGEDKKGIVYIFNGRSTGLNAVPSQILEGQWAARSMPPSFGYSMKGATDIDKNGYPDLIVGAFGVDRAILYRARPVITVNAGLEVYPSILNQDNKTCSLPGTALKVSCFNVRFCLKADGKGVLPRKLNFQVELLLDKLKQKGAIRRALFLYSRSPSHSKNMTISRGGLMQCEELIAYLRDESEFRDKLTPITIFMEYRLDYRTAADTTGLQPILNQFTPANISRQAHILLDCGEDNVCKPKLEVSVDSDQKKIYIGDDNPLTLIVKAQNQGEGAYEAELIVSIPLQADFIGVVRNNEALARLSCAFKTENQTRQVVCDLGNPMKAGTQLLAGLRFSVHQQSEMDTSVKFDLQIQSSNLFDKVSPVVSHKVDLAVLAAVEIRGVSSPDHVFLPIPNWEHKENPETEEDVGPVVQHIYELRNNGPSSFSKAMLHLQWPYKYNNNTLLYILHYDIDGPMNCTSDMEINPLRIKISSLQTTEKNDTVAGQGERDHLITKRDLALSEGDIHTLGCGVAQCLKIVCQVGRLDRGKSAILYVKSLLWTETFMNKENQNHSYSLKSSASFNVIEFPYKNLPIEDITNSTLVTTNVTWGIQPAPMPVPVWVIILAVLAGLLLLAVLVFVMYRMGFFKRVRPPQEEQEREQLQPHENGEGNSET
chain 2: GPNICTTRGVSSCQQCLAVSPMCAWCSDEALPLGSPRCDLKENLLKDNCAPESIEFPVSEARVLEDRPLSDKGSGDSSQVTQVSPQRIALRLRPDDSKNFSIQVRQVEDYPVDIYYLMDLSYSMKDDLWSIQNLGTKLATQMRKLTSNLRIGFGAFVDKPVSPYMYISPPEALENPCYDMKTTCLPMFGYKHVLTLTDQVTRFNEEVKKQSVSRNRDAPEGGFDAIMQATVCDEKIGWRNDASHLLVFTTDAKTHIALDGRLAGIVQPNDGQCHVGSDNHYSASTTMDYPSLGLMTEKLSQKNINLIFAVTENVVNLYQNYSELIPGTTVGVLSMDSSNVLQLIVDAYGKIRSKVELEVRDLPEELSLSFNATCLNNEVIPGLKSCMGLKIGDTVSFSIEAKVRGCPQEKEKSFTIKPVGFKDSLIVQVTFDCDCACQAQAEPNSHRCNNGNGTFECGVCRCGPGWLGSQCECSEEDYRPSQQDECSPREGQPVCSQRGECLCGQCVCHSSDFGKITGKYCECDDFSCVRYKGEMCSGHGQCSCGDCLCDSDWTGYYCNCTTRTDTCMSSNGLLCSGRGKCECGSCVCIQPGSYGDTCEKCPTCPDACTFKKECVECKKFDRGALHDENTCNRYCRDEIESVKELKDTGKDAVNCTYKNEDDCVVRFQYYEDSSGKSILYVVEEPECPKGPDILVVLLSVMGAILLIGLAALLIWKLLITIHDRKEFAKFEEERARAKWDTANNPLYKEATSTFTNITYRGT
notes: Bought from Chemicon; coated at 1 ug/ml on Maxisorp plates; also called alpha-v beta-3 integrin
- binding result: no binding (tested: 10 ug/ml)

From patent publication US20240150495A1 (F STAR BIOTECHNOLOGISCHE FORSCHUNGS UND ENTWICKLUNGSGES M B …, published 2024)
